The target of assay [1] is human gastric mucin MUC6 (human (endogenous in gastric corpus tissue)) (UniProt Q6W4X9). Description: far-Western, overlay or dot blot; as the overlay on fractions B12/C1, but with 30 mM EDTA and no added Ca2+.
Assay [2] concerns the target mucins (PAS-positive high-molecular-mass peak of human gastric extracts, containing MUC5AC and MUC6). Description: SEC + native gel or EMSA; human gastric extracts (conventional extract, extract E1) on Superdex 75 HL, 20 mM Tris-HCl pH 7.0, 30 mM NaCl; fractions analysed by 1% AgGE and Western blot; semi-quantitative TFF2 content. Background: A gel shift assay detects complexes by their altered migration in electrophoresis.

UniProt Q6W4X9, sequence (Q6W4X9 23-2439): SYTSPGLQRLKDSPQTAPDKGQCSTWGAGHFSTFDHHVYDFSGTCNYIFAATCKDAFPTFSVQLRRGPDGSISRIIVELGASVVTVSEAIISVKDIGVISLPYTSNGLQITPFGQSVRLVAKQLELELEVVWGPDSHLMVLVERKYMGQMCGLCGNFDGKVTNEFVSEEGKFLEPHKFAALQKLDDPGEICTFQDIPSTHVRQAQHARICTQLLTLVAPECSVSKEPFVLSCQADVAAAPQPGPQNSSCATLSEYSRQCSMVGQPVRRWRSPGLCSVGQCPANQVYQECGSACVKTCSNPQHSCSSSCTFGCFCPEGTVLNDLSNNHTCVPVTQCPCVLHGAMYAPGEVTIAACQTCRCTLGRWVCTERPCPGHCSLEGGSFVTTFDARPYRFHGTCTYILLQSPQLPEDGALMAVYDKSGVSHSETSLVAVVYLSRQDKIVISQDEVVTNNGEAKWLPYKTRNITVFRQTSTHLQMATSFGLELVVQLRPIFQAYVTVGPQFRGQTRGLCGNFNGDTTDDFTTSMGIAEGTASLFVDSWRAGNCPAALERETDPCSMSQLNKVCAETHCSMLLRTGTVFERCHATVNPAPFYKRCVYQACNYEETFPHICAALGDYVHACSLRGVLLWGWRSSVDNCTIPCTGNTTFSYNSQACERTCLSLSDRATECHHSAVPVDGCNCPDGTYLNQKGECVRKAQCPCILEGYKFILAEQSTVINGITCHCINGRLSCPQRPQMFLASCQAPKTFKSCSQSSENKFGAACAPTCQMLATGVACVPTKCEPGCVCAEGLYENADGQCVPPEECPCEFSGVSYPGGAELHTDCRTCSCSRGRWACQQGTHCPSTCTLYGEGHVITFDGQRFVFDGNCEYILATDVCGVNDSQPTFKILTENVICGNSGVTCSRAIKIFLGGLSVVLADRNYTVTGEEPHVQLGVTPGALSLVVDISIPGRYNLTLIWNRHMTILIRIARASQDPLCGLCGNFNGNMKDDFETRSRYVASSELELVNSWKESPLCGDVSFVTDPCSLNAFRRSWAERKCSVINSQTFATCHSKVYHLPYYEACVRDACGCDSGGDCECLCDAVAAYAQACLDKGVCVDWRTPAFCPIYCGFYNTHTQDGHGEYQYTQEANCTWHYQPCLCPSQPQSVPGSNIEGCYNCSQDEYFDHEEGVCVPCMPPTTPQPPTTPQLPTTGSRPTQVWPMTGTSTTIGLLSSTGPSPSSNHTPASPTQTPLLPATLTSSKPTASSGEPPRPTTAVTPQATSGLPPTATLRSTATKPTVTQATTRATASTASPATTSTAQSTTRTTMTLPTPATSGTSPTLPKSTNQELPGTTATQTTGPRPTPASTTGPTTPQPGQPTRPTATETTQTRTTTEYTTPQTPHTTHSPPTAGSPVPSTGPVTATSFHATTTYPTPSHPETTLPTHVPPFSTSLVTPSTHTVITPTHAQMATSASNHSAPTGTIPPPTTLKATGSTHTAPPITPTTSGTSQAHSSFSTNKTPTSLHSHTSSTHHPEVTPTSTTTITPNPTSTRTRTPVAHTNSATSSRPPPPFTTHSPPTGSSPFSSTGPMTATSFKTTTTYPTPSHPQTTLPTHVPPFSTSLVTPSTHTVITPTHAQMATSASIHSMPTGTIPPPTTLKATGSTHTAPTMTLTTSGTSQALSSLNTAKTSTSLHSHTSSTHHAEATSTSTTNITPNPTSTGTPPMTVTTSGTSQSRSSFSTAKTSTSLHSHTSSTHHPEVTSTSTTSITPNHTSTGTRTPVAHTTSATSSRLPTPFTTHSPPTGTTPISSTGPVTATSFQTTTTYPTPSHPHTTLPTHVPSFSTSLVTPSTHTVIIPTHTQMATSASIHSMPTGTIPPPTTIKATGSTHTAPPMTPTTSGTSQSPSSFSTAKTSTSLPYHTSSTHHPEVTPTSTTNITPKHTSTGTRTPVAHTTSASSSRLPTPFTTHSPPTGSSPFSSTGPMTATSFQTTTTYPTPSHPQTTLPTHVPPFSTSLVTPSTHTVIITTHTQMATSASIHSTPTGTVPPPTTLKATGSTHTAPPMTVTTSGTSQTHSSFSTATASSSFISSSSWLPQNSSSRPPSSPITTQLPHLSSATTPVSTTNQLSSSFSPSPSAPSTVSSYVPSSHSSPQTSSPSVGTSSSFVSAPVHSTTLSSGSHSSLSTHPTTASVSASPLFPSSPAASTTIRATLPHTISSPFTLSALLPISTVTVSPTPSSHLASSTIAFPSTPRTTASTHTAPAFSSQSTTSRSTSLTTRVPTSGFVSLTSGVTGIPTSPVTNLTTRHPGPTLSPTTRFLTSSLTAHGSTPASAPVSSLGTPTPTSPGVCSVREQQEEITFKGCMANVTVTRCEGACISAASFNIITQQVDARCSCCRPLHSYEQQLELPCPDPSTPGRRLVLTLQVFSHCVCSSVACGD

“125I-labeled recombinant human glycosylated TFF2 (from UniProt Q03403 24-129) (natural protein)”: the relative amount of TFF2 bound with 30 mM EDTA in assay [1] is 10%.

B1: human gastric TFF2 (endogenous) (natural protein)
chain: EKPSPCQCSRLSPHNRTNCGFPGITSDQCFDNGCCFDSSVTGVPWCFHPLPKQESDQCVMEVSDRRNCGYPGISPEECASRKCCFSNFIFEVPWCFFPKSVEDCHY
modifications: mainly N-glycosylated, to a minor extent non-glycosylated
With B1, the percent of TFF2 in the high-molecular-mass form (extract E1) in assay [2] stood at 86%.

(Values after article PMC6928932.)
